In US6432692B1, “Sensitive bioassay for detecting agonists of the aryl hydrocarbon receptor” (Wisconsin Alumni Research Foundation, priority 1999, dated 2002):

System: AHR
Assay: Coimmunoprecipitation of 35S-labeled AHR with T7-tagged ARA9 or FKBP52
Assay type: binding
Details: T7-agarose coimmunoprecipitation, reticulocyte lysate AHR
Method: Bacterial Expression: The ARA9 and FKBP52 proteins tagged with the T7 peptide (PL799, PL1004, PL1005 and PL947) were expressed in BL21(DE3) bacteria (Novagen). The T7 tag is an 11 amino acid peptide, MASMTGGQQMG, that facilitates detection and purification of the recombinant protein using anti-T7 antibodies (Novagen). Saturated cultures were used to inoculate LB growth media supplemented with 0.4 mM IPTG and 100 μg/ml ampicillin. The bacteria were allowed to grow an additional 4 hours at 37° C and pelleted by centrifugation at 5000×g for 5 min. The pellet was resuspended in bind/wash buffer (4.29 mM Na2HPO4, 1.47 mM KH2PO4, 2.7 mM KCl, 0.137 M NaCl, 0.1% (v/v) Tween and 0.002% (w/v) NaN3). The resulting mixture was disrupted using four ×15 second sonic pulses on ice. Insoluble debris was removed by centrifugation at 12,000×g for 20 minutes at 4° C. The supernatant was passed through a […] filter and protein concentrations determined by the BCA protein assay (Pierce, Rockford Ill.). […] The complexes were then precipitated and analyzed by SDS-PAGE and autoradiography.
Specificity of ARA9 for AHR: The structural similarity between ARA9 and FKBP52 led us to compare the relative capacity of these two factors to bind AHR. […] The AHR-ARA9 or AHR-FKBP52 associations were determined by coimmunoprecipitation with T7-agarose.

B1: ARA9: 37 kDa Ah receptor-associated protein, immunophilin structurally similar to FKBP52 (protein, UniProt O08915 1-330, looked up)
AH receptor-interacting …: MADLIARLREDGIQKRVIQEGRGELPDFQDGTKATFHFRTLHSDNEGSVIDDSRTRGKPMELIVGKKFKLPVWETIVCTMREGEIAQFLCDIKHVVLYPLVAKSLRNIAEGKDPLEGQRHCCGIAQMHEHSSLGHADLDALQQNPQPLIFHIEMLKVESPGTYQQDPWAMTDEEKAKAVPVIHQEGNRLYREGQVKEAAAKYYDAIACLKNLQMKEQPGSPDWIQLDLQITPLLLNYCQCKLVAQEYYEVLDHCSSILNKYDDNVKAYFKRGKAHAAVWNAQEAQADFAKVLELDPALAPVVSRELRALETRIRQKDEEDKARFRGIFSH
efficiency at precipitating AHR relative to FKBP52: approximately four times more efficient
